Here are results for one substance from patent US11266715B2, “C3A receptor agonists for use against ischemic brain injury, stroke, traumatic brain injury, spinal cord injury and neurodegenerative disorders” (priority 2016, dated 2022).

This data set can be described thus: In vivo epifluorescent imaging of labelled C3a after intranasal administration. Details: species or system mouse. How it is done: C3a (Complement Technologies) was labelled with VivoTag XL 680 fluorescent tag (Perkin Elmer) and purified according to manufacturer's instructions. A minimum of 10 μg of labelled C3a (0.4 mg/kg of body weight) was determined in a pilot experiment to be necessary for reliable detection of the fluorescent signal in live animals due to its significant attenuation by skull bones. Mice received 20 μl of PBS or 65 μM C3a-VivoTag (0.48 mg/kg of body weight) intranasally as described above. One and three hours later, mice were anesthetized with 2% isoflurane and imaged in the IVIS Lumina III Bio-imaging platform (Caliper Technologies). After imaging, mice were deeply anesthetized with isoflurane and killed by cervical dislocation for ex vivo imaging. Brains were quickly dissected from the skull and imaged using the same fluorescent filter sets. All mice and brains were imaged simultaneously with the PBS-treated control (acting as the tissue autofluorescence reference) placed in the middle, to minimize the potential confound of weaker illumination toward the sides of the observation field. Acquired images were processed and analysed using Living Image software (Caliper Technologies). Epifluorescent signal intensities are presented as radiant efficiency [(photons/sec/cm^2/sr)/(μW/cm^2)] after subtraction of the residual tissue autofluorescence signal defined by the PBS control.

With “fluorescently labelled C3a: C3a (Complement Technologies) labelled with VivoTag XL 680 fluorescent tag”, the “time C3a is detectable in brain tissue after intranasal administration” value (20 μl of 65 μM C3a-VivoTag (0.48 mg/kg) intranasal, imaged at 1 and 3 h, live and ex vivo) is given as “at least 3 hours”. For the same substance, under “epifluorescent imaging in live animals”, the “delivery to the brain by intranasal administration” value is recorded as “can be delivered to the mouse brain through intranasal administration”.
